# T1: HTRA3, P83110
# T1 sequence (P83110 354-453, limits assumed, looked up): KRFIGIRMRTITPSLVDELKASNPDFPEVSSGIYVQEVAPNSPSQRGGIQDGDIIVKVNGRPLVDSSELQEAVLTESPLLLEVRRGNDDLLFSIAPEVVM
# T2: APBA3_1, O96018
# T2 sequence (O96018 389-490, limits assumed, looked up): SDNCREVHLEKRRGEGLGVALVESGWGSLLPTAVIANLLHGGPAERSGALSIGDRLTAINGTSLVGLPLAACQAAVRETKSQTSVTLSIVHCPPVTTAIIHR
# T3: LIN7C, Q9NUP9
# T3 sequence (Q9NUP9 88-185, limits assumed, looked up): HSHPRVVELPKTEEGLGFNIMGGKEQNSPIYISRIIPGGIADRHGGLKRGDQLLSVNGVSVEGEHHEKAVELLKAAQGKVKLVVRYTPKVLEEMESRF
# T4: PDZD7_3, Q9H5P4
# T4 sequence (Q9H5P4 857-944, limits assumed, looked up): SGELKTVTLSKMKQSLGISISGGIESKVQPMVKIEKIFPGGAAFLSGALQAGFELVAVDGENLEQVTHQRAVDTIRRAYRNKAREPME
# T5: TX1BP3, O14907
# T5 sequence (O14907 10-122, limits assumed, looked up): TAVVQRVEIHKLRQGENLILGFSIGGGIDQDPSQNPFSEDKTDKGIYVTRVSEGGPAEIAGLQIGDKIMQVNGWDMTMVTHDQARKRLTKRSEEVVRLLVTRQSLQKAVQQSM
# T6: PTPN13_1, Q12923
# T6 sequence (Q12923 1088-1188, limits assumed, looked up): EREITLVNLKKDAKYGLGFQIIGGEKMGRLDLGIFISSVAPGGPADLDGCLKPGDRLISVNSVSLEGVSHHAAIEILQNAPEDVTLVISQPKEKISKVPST
# T7: SNTA1, Q13424
# T7 sequence (Q13424 82-180, limits assumed, looked up): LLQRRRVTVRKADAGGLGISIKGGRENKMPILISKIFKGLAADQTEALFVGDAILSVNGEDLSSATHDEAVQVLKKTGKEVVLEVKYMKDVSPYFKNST
# T8: RHPN1, Q8TCX5
# T8 sequence (Q8TCX5 508-602, limits assumed, looked up): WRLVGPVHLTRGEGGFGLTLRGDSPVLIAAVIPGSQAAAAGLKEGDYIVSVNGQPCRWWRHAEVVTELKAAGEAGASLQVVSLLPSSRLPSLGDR
# T9: FRMPD1, Q5SYB0
# T9 sequence (Q5SYB0 52-145, limits assumed, looked up): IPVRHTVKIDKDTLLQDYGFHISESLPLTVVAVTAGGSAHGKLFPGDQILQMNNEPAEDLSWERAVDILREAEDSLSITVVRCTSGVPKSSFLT
# T10: SNTG2, Q9NY99
# T10 sequence (Q9NY99 68-166, limits assumed, looked up): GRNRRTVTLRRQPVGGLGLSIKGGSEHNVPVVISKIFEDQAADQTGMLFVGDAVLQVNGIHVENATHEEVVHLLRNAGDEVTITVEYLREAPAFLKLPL
# T11: DVL3, Q92997
# T11 sequence (Q92997 244-331, limits assumed, looked up): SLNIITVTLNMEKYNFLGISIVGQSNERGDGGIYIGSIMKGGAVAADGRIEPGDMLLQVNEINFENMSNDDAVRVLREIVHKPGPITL
# T12: TJP3_3, O95049
# T12 sequence (O95049 375-456, limits assumed, looked up): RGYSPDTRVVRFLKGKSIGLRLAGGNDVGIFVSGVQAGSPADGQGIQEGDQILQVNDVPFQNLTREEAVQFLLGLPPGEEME
# B1: RAMP3, O60896 (peptide)
# chain: WRSKRTDTLL
# B2: TUBB4B, P68371 (peptide)
# chain: FEEEAEEEVA
# Target: T1, HTRA3, P83110
# Experiment: holdup assay
# Design: key: below the threshold = too weak to quantify, mostly under pKd 3.1 to 4
# Conditions: plain residues with an end cap or a label only (N-terminal biotin on a linker: ado-ado)
row,pKd,Binder
1,below the threshold,B1
2,below the threshold,B2

# Target: FRMPD3, Q5JV73
# Sequence (Q5JV73 12-100): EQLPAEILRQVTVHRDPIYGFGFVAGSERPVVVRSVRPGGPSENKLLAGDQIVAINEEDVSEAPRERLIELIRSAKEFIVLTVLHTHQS
# Experiment: holdup assay
# Design: key: below the threshold = too weak to quantify, mostly under pKd 3.1 to 4
# Conditions: plain residues with an end cap or a label only (N-terminal biotin on a linker: ado-ado)
row,pKd,Binder
1,below the threshold,B1
2,below the threshold,B2

# Target: T2, APBA3_1, O96018
# Experiment: holdup assay
# Design: key: below the threshold = too weak to quantify, mostly under pKd 3.1 to 4
# Conditions: plain residues with an end cap or a label only (N-terminal biotin on a linker: ado-ado)
row,pKd,Binder
1,below the threshold,B1
2,below the threshold,B2

# Target: ARHGEF12, Q9NZN5-2
# Sequence (Q9NZN5 other isoform, or with tags, fused parts or gaps): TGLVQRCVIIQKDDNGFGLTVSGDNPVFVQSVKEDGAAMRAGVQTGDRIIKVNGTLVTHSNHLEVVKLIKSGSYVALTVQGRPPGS
# Experiment: holdup assay
# Design: key: below the threshold = too weak to quantify, mostly under pKd 3.1 to 4
# Conditions: plain residues with an end cap or a label only (N-terminal biotin on a linker: ado-ado)
row,pKd,Binder
1,4.03,B1
2,below the threshold,B2

# Target: GRIP2_3, Q9C0E4
# Sequence (Q9C0E4 238-339): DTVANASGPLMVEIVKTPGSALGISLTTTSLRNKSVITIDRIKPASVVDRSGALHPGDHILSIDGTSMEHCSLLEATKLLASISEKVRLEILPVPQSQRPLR
# Experiment: holdup assay
# Design: key: below the threshold = too weak to quantify, mostly under pKd 3.1 to 4
# Conditions: plain residues with an end cap or a label only (N-terminal biotin on a linker: ado-ado)
row,pKd,Binder
1,below the threshold,B1
2,below the threshold,B2

# Target: MAGI2_4, Q86UL8
# Sequence (Q86UL8 772-865): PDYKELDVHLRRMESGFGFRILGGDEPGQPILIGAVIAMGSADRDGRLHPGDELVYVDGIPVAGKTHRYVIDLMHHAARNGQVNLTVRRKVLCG
# Experiment: holdup assay
# Design: key: below the threshold = too weak to quantify, mostly under pKd 3.1 to 4
# Conditions: plain residues with an end cap or a label only (N-terminal biotin on a linker: ado-ado)
row,pKd,Binder
1,3.91,B1
2,below the threshold,B2

# Target: DLG2_3, Q15700
# Experiment: holdup assay
# Design: key: below the threshold = too weak to quantify, mostly under pKd 3.1 to 4
# Conditions: plain residues with an end cap or a label only (N-terminal biotin on a linker: ado-ado)
row,pKd,Binder
1,below the threshold,B1
2,below the threshold,B2

# Target: T3, LIN7C, Q9NUP9
# Experiment: holdup assay
# Design: key: below the threshold = too weak to quantify, mostly under pKd 3.1 to 4
# Conditions: plain residues with an end cap or a label only (N-terminal biotin on a linker: ado-ado)
row,pKd,Binder
1,below the threshold,B1
2,3.76,B2

# Target: T4, PDZD7_3, Q9H5P4
# Experiment: holdup assay
# Design: key: below the threshold = too weak to quantify, mostly under pKd 3.1 to 4
# Conditions: plain residues with an end cap or a label only (N-terminal biotin on a linker: ado-ado)
row,pKd,Binder
1,3.99,B1
2,below the threshold,B2

# Target: FRMPD2_2, Q68DX3
# Sequence (Q68DX3 944-1038): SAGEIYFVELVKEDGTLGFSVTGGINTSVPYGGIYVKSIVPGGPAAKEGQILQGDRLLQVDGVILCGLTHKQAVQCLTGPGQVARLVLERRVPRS
# Experiment: holdup assay
# Design: key: below the threshold = too weak to quantify, mostly under pKd 3.1 to 4
# Conditions: plain residues with an end cap or a label only (N-terminal biotin on a linker: ado-ado)
row,pKd,Binder
1,below the threshold,B1
2,below the threshold,B2

# Target: PTPN3, P26045
# Sequence (P26045 505-587): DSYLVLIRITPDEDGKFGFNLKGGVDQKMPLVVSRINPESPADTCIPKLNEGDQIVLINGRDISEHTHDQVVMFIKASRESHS
# Experiment: holdup assay
# Design: key: below the threshold = too weak to quantify, mostly under pKd 3.1 to 4
# Conditions: plain residues with an end cap or a label only (N-terminal biotin on a linker: ado-ado)
row,pKd,Binder
1,4.22,B1
2,3.54,B2

# Target: T5, TX1BP3, O14907
# Experiment: holdup assay
# Design: key: below the threshold = too weak to quantify, mostly under pKd 3.1 to 4
# Conditions: plain residues with an end cap or a label only (N-terminal biotin on a linker: ado-ado)
row,pKd,Binder
1,4.13,B1
2,3.8,B2

# Target: FRMPD2_1, Q68DX3
# Sequence (Q68DX3 770-861): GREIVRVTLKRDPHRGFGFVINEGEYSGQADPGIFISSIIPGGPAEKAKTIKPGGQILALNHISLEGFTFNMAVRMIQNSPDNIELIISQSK
# Experiment: holdup assay
# Design: key: below the threshold = too weak to quantify, mostly under pKd 3.1 to 4
# Conditions: plain residues with an end cap or a label only (N-terminal biotin on a linker: ado-ado)
row,pKd,Binder
1,below the threshold,B1
2,below the threshold,B2

# Target: T6, PTPN13_1, Q12923
# Experiment: holdup assay
# Design: key: below the threshold = too weak to quantify, mostly under pKd 3.1 to 4
# Conditions: plain residues with an end cap or a label only (N-terminal biotin on a linker: ado-ado)
row,pKd,Binder
1,below the threshold,B1
2,below the threshold,B2

# Target: GORASP1, Q9BQQ3
# Sequence (Q9BQQ3 1-208): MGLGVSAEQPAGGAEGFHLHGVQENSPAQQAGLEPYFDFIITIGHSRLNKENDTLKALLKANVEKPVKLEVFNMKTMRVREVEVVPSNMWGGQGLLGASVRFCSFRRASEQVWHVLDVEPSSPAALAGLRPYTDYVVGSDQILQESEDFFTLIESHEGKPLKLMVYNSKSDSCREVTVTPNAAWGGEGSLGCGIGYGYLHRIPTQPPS
# Experiment: holdup assay
# Design: key: below the threshold = too weak to quantify, mostly under pKd 3.1 to 4
# Conditions: plain residues with an end cap or a label only (N-terminal biotin on a linker: ado-ado)
row,pKd,Binder
1,3.78,B1
2,below the threshold,B2

# Target: T7, SNTA1, Q13424
# Experiment: holdup assay
# Design: key: below the threshold = too weak to quantify, mostly under pKd 3.1 to 4
# Conditions: plain residues with an end cap or a label only (N-terminal biotin on a linker: ado-ado)
row,pKd,Binder
1,3.59,B1
2,below the threshold,B2

# Target: PDZRN4_1, Q6ZMN7
# Sequence (Q6ZMN7 213-318): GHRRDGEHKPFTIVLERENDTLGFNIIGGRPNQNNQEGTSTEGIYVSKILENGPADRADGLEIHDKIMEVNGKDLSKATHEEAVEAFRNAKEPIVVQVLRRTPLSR
# Experiment: holdup assay
# Design: key: below the threshold = too weak to quantify, mostly under pKd 3.1 to 4
# Conditions: plain residues with an end cap or a label only (N-terminal biotin on a linker: ado-ado)
row,pKd,Binder
1,3.75,B1
2,below the threshold,B2

# Target: MAST1, Q9Y2H9
# Sequence (Q9Y2H9 962-1065): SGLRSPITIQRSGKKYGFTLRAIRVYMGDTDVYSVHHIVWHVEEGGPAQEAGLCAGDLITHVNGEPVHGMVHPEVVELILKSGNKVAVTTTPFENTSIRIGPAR
# Experiment: holdup assay
# Design: key: below the threshold = too weak to quantify, mostly under pKd 3.1 to 4
# Conditions: plain residues with an end cap or a label only (N-terminal biotin on a linker: ado-ado)
row,pKd,Binder
1,3.84,B1
2,below the threshold,B2

# Target: T8, RHPN1, Q8TCX5
# Experiment: holdup assay
# Design: key: below the threshold = too weak to quantify, mostly under pKd 3.1 to 4
# Conditions: plain residues with an end cap or a label only (N-terminal biotin on a linker: ado-ado)
row,pKd,Binder
1,4.04,B1
2,below the threshold,B2

# Target: T9, FRMPD1, Q5SYB0
# Experiment: holdup assay
# Design: key: below the threshold = too weak to quantify, mostly under pKd 3.1 to 4
# Conditions: plain residues with an end cap or a label only (N-terminal biotin on a linker: ado-ado)
row,pKd,Binder
1,below the threshold,B1
2,below the threshold,B2

# Target: T10, SNTG2, Q9NY99
# Experiment: holdup assay
# Design: key: below the threshold = too weak to quantify, mostly under pKd 3.1 to 4
# Conditions: plain residues with an end cap or a label only (N-terminal biotin on a linker: ado-ado)
row,pKd,Binder
1,below the threshold,B1
2,below the threshold,B2

# Target: T11, DVL3, Q92997
# Experiment: holdup assay
# Design: key: below the threshold = too weak to quantify, mostly under pKd 3.1 to 4
# Conditions: plain residues with an end cap or a label only (N-terminal biotin on a linker: ado-ado)
row,pKd,Binder
1,below the threshold,B1
2,below the threshold,B2

# Target: Inadl_4, Q8NI35
# Sequence (Q8NI35 547-651): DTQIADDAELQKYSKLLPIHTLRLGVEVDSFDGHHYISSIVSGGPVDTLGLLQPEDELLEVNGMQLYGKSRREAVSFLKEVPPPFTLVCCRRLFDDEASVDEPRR
# Experiment: holdup assay
# Design: key: below the threshold = too weak to quantify, mostly under pKd 3.1 to 4
# Conditions: plain residues with an end cap or a label only (N-terminal biotin on a linker: ado-ado)
row,pKd,Binder
1,below the threshold,B1
2,below the threshold,B2

# Target: T12, TJP3_3, O95049
# Experiment: holdup assay
# Design: key: below the threshold = too weak to quantify, mostly under pKd 3.1 to 4
# Conditions: plain residues with an end cap or a label only (N-terminal biotin on a linker: ado-ado)
row,pKd,Binder
1,below the threshold,B1
2,below the threshold,B2

# Target: Inadl_5, Q8NI35
# Sequence (Q8NI35 673-780): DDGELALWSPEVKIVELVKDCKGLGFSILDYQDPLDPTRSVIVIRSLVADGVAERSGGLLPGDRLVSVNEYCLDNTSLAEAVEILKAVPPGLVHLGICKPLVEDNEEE
# Experiment: holdup assay
# Design: key: below the threshold = too weak to quantify, mostly under pKd 3.1 to 4
# Conditions: plain residues with an end cap or a label only (N-terminal biotin on a linker: ado-ado)
row,pKd,Binder
1,below the threshold,B1
2,below the threshold,B2
